From patent US20150344570A1 (published 2015)

B1: GpH7-A5/GpH7-B3 variant S324_05P/GpL16-k0 (antibody, human IgG1, kappa)
heavy 1: not shown
heavy 2: not shown
light: DIVMTQSPLSLPVTPGEPASISCQASESLVHSNRNTYLHWYLQKPGQSPQLLIYKVSNRFSGVPDRFSGSGSGTDFTLKISRVEAEDVGVYYCSQNTHVPPTFGQGTKVEIERTVAAPSVFIFPPSDEQLKSGTASVVCLLNNFYPREAKVQWKVDNALQSGNSQESVTEQDSKDSTYSLSSTLTLSKADYEKHKVYACEVTHQGLSSPVTKSFNRGEC
notes: Heterodimerized anti-glypican-3 IgG1; mutation in one H chain only; also called He Ab
B2: GpH7-A5/GpH7-B3 variant G236_02A/GpL16-k0 (antibody, human IgG1, kappa)
heavy 1: not shown
heavy 2: not shown
light: B1 light
notes: Heterodimerized IgG1; mutation in the GpH7-B3 chain only; also called He Ab
B3: GpH7-A5/GpH7-B3 variant L234_19Q/GpL16-k0 (antibody, human IgG1, kappa)
heavy 1: not shown
heavy 2: not shown
light: B1 light
notes: as for B2
B4: GpH7-A5/GpH7-B3 variant L235_11K/GpL16-k0 (antibody, human IgG1, kappa)
heavy 1: not shown
heavy 2: not shown
light: B1 light
notes: as for B2
B5: GpH7-A5/GpH7-B3 variant L235_19Q/GpL16-k0 (antibody, human IgG1, kappa)
heavy 1: not shown
heavy 2: not shown
light: B1 light
notes: as for B2
B6: GpH7-A5/GpH7-B3 variant L234_16H/GpL16-k0 (antibody, human IgG1, kappa)
heavy 1: not shown
heavy 2: not shown
light: B1 light
notes: as for B2
B7: GpH7-A5/GpH7-B3 variant L234_01G/GpL16-k0 (antibody, human IgG1, kappa)
heavy 1: not shown
heavy 2: not shown
light: B1 light
notes: as for B2
B8: GpH7-A5/GpH7-B3 variant G236_04F/GpL16-k0 (antibody, human IgG1, kappa)
heavy 1: not shown
heavy 2: not shown
light: B1 light
notes: as for B2
B9: GpH7-A5/GpH7-B3 variant L234_05P/GpL16-k0 (antibody, human IgG1, kappa)
heavy 1: not shown
heavy 2: not shown
light: B1 light
notes: as for B2
B10: GpH7-A5/GpH7-B3 variant G236_06M/GpL16-k0 (antibody, human IgG1, kappa)
heavy 1: not shown
heavy 2: not shown
light: B1 light
notes: as for B2
B11: GpH7-A5/GpH7-B3 variant L235_01G/GpL16-k0 (antibody, human IgG1, kappa)
heavy 1: not shown
heavy 2: not shown
light: B1 light
notes: as for B2
B12: GpH7-A5/GpH7-B3 variant L235_03V/GpL16-k0 (antibody, human IgG1, kappa)
heavy 1: not shown
heavy 2: not shown
light: B1 light
notes: as for B2
B13: GpH7-A5/GpH7-B3 variant L234_02A/GpL16-k0 (antibody, human IgG1, kappa)
heavy 1: not shown
heavy 2: not shown
light: B1 light
notes: as for B2
B14: GpH7-A5/GpH7-B3 variant G236_13S/GpL16-k0 (antibody, human IgG1, kappa)
heavy 1: not shown
heavy 2: not shown
light: B1 light
notes: as for B2
B15: GpH7-A5/GpH7-B3 variant G236_08L/GpL16-k0 (antibody, human IgG1, kappa)
heavy 1: not shown
heavy 2: not shown
light: B1 light
notes: as for B2
B16: GpH7-A5/GpH7-B3 variant L235_14T/GpL16-k0 (antibody, human IgG1, kappa)
heavy 1: not shown
heavy 2: not shown
light: B1 light
notes: as for B2
B17: GpH7-A5/GpH7-B3 variant L234_14T/GpL16-k0 (antibody, human IgG1, kappa)
heavy 1: not shown
heavy 2: not shown
light: B1 light
notes: as for B2
B18: GpH7-A5/GpH7-B3 variant G236_03V/GpL16-k0 (antibody, human IgG1, kappa)
heavy 1: not shown
heavy 2: not shown
light: B1 light
notes: as for B2
B19: GpH7-A5/GpH7-B3 variant L234_15Y/GpL16-k0 (antibody, human IgG1, kappa)
heavy 1: not shown
heavy 2: not shown
light: B1 light
notes: as for B2
B20: GpH7-A5/GpH7-B3 variant L235_18N/GpL16-k0 (antibody, human IgG1, kappa)
heavy 1: not shown
heavy 2: not shown
light: B1 light
notes: as for B2
B21: GpH7-A5/GpH7-B3 variant L234_13S/GpL16-k0 (antibody, human IgG1, kappa)
heavy 1: not shown
heavy 2: not shown
light: B1 light
notes: as for B2
B22: GpH7-A5/GpH7-B3 variant G236_07I/GpL16-k0 (antibody, human IgG1, kappa)
heavy 1: not shown
heavy 2: not shown
light: B1 light
notes: as for B2
B23: GpH7-A5/GpH7-B3 variant G236_14T/GpL16-k0 (antibody, human IgG1, kappa)
heavy 1: not shown
heavy 2: not shown
light: B1 light
notes: as for B2
B24: GpH7-A5/GpH7-B3 variant L234_11K/GpL16-k0 (antibody, human IgG1, kappa)
heavy 1: not shown
heavy 2: not shown
light: B1 light
notes: as for B2
B25: GpH7-A5/GpH7-B3 variant L234_12R/GpL16-k0 (antibody, human IgG1, kappa)
heavy 1: not shown
heavy 2: not shown
light: B1 light
notes: as for B2
B26: GpH7-A5/GpH7-B3 variant G236_15Y/GpL16-k0 (antibody, human IgG1, kappa)
heavy 1: not shown
heavy 2: not shown
light: B1 light
notes: as for B2
B27: GpH7-A5/GpH7-B3 variant G236_12R/GpL16-k0 (antibody, human IgG1, kappa)
heavy 1: not shown
heavy 2: not shown
light: B1 light
notes: as for B2
B28: GpH7-A5/GpH7-B3 variant L234_04F/GpL16-k0 (antibody, human IgG1, kappa)
heavy 1: not shown
heavy 2: not shown
light: B1 light
notes: as for B2
B29: GpH7-A5/GpH7-B3 variant L235_13S/GpL16-k0 (antibody, human IgG1, kappa)
heavy 1: not shown
heavy 2: not shown
light: B1 light
notes: as for B2
B30: GpH7-A5/GpH7-B3 variant G236_05P/GpL16-k0 (antibody, human IgG1, kappa)
heavy 1: not shown
heavy 2: not shown
light: B1 light
notes: as for B2
B31: GpH7-A5/GpH7-B3 variant L235_12R/GpL16-k0 (antibody, human IgG1, kappa)
heavy 1: not shown
heavy 2: not shown
light: B1 light
notes: as for B2

molecular target: T1, FcγRIIb, extracellular domain with C-terminal His tag (human, UniProt P31994 43-217); test: SPR (Biacore), relative binding vs GpH7-A5/GpH7-B3/GpL16-k0
T1 construct: extracellular domain; also called FcgRIIb; 2b; not shown: His tag at the C terminus
T1 sequence (looked up): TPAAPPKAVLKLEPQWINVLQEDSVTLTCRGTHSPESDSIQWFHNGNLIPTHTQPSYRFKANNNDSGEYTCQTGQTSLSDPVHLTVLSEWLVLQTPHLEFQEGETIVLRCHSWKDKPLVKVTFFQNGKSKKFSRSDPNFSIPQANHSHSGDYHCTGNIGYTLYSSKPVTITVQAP

Binder | He/Con_2b
B1 | 94.7 % of HeCon Ab (=100)

molecular target: T2, FcγRIIa H (FcγRIIa, allotype with His at position 131), extracellular domain with C-terminal His tag (human, UniProt P12318 34-217); test: as above
T2 construct: extracellular domain; also called FcgRIIa H; 2aH; not shown: His tag at the C terminus
T2 sequence (looked up): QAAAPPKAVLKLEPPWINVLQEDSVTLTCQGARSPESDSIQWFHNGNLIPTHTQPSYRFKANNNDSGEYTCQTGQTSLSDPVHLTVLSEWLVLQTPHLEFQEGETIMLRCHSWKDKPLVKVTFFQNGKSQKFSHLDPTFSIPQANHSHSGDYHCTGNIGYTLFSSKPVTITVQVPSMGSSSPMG

Binder | He/Con_2aH
B1 | 55.5 % of HeCon Ab (=100)

molecular target: T3, FcγRIIb (human, UniProt P31994 43-217); test: SPR (Biacore), antibody captured, FcγR as analyte; binding relative to GpH7-A5/GpH7-B3/GpL16-k0 = 100
T3 construct: extracellular domain; also called 2b; not shown: His tag at the C terminus
T3 sequence (looked up): T1 sequence (looked up)

Binder | He/Con_2b
B2 | 96.5 % of control
B3 | 60.3 % of control
B4 | 6.3 % of control
B5 | 42.6 % of control
B6 | 59.4 % of control
B7 | 50.7 % of control
B8 | 39.3 % of control
B9 | 72.9 % of control
B10 | 45.5 % of control
B11 | 35.4 % of control
B12 | 66.4 % of control
B13 | 64.9 % of control
B14 | 96.7 % of control
B15 | 26.8 % of control
B16 | 46.8 % of control
B17 | 62.5 % of control
B18 | 35.3 % of control
B19 | 96.3 % of control
B20 | 54.9 % of control
B21 | 59.3 % of control
B22 | 31 % of control
B23 | 57.8 % of control
B24 | 16.2 % of control
B25 | 18.9 % of control
B26 | 39.5 % of control
B27 | 6.8 % of control
B28 | 99.8 % of control
B29 | 48.2 % of control
B30 | 19 % of control

molecular target: T4, FcγRIIa H (human, UniProt P12318 34-217); test: as above
T4 construct: extracellular domain; also called FcγRIIa type H; 2aH; not shown: His tag at the C terminus
T4 sequence (looked up): T2 sequence (looked up)

Binder | He/Con_2aH
B2 | 139 % of control
B3 | 79.2 % of control
B4 | 22.7 % of control
B5 | 62 % of control
B6 | 87.3 % of control
B7 | 75.6 % of control
B8 | 118 % of control
B9 | 93.5 % of control
B10 | 85.7 % of control
B11 | 54.1 % of control
B12 | 85.3 % of control
B13 | 81 % of control
B14 | 135 % of control
B15 | 75.8 % of control
B16 | 71.5 % of control
B31 | 30.3 % of control
B17 | 78.1 % of control
B18 | 119 % of control
B19 | 120 % of control
B20 | 66.1 % of control
B21 | 80.4 % of control
B22 | 115 % of control
B23 | 103 % of control
B24 | 40.8 % of control
B25 | 47.7 % of control
B26 | 136 % of control
B27 | 34.2 % of control
B28 | 120 % of control
B29 | 66.1 % of control
B30 | 63.5 % of control

molecular target: T4, FcγRIIa H; test: SPR (Biacore); He/Con_2aH divided by He/Con_2b (FcγRIIa H over FcγRIIb)

Binder | He_2aH/2b (IIaH/IIb)
B2 | 1.44 ratio
B3 | 1.31 ratio
B4 | 3.61 ratio
B5 | 1.45 ratio
B6 | 1.47 ratio
B7 | 1.49 ratio
B8 | 3 ratio
B9 | 1.28 ratio
B10 | 1.88 ratio
B11 | 1.53 ratio
B12 | 1.28 ratio
B13 | 1.25 ratio
B14 | 1.39 ratio
B15 | 2.83 ratio
B16 | 1.53 ratio
B31 | 3.16 ratio
B17 | 1.25 ratio
B18 | 3.39 ratio
B19 | 1.25 ratio
B20 | 1.2 ratio
B21 | 1.36 ratio
B22 | 3.72 ratio
B23 | 1.79 ratio
B24 | 2.52 ratio
B25 | 2.53 ratio
B26 | 3.45 ratio
B27 | 5.04 ratio
B28 | 1.2 ratio
B29 | 1.37 ratio
B30 | 3.34 ratio

molecular target: T2, FcγRIIa H (FcγRIIa, allotype with His …); test: SPR (Biacore); He/Con_2aH divided by He/Con_2b (FcγRIIb)

Binder | He_2aH/2b (IIaH/IIb)
B1 | 0.59 ratio
